# Assay results reported in the nanobody polyreactivity screen of Harvey et al. (2022).
# Experiment: yeast display, Sf9 membrane polyspecificity reagent, FACS + sequencing; frameworks hold sequencing errors
# In short: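 Using colony PCR, genes from sorted yeast display clones were amplified, then sequenced on MiSeq at 2 × 250 and filtered by CDR length. The clones had been stained with 10% biotinylated, detergent-solubilized Sf9 membrane reagent for 1 hour at 4 °C and sorted by FACS into low and high (top ~1%) gates on anti-HA and streptavidin fluorescence. Polyreactivity labels come from the gate of origin.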
row,Sequence,polyreactivity (PSR sort gate)
1,QVQLVESGGCLVQAGGSLRLSCAASGSTFPVYSMGWYRQAPGKERELVAAISYSGGSTNYADSVKGRFTISRDNAKNTVYLQMNSLKPEDTAVYYFAADTESHHEGNYWGQGTQVTVSS,low polyreactivity
2,QVQLVESGGCLVQAGGSLRLSCAASGSTFSRYAMGWYRQAPGKERELVAAISWGGNTYYADSVKGRFTISRDNAKNTVYLQMNSLKPEDTAGYYCNADYSSRGANYDYWGQGTQVTVSS,high polyreactivity
3,QVQLVESGGCLVQAGGSLRLSCAASGSTFTIYVMGGYRQAPGKERELVAAITWSDGITYYADSVKGRFTISRDNAKNTVYLQMNSLKPEDTAVYYCRDSHPSYRPGTVRYDYWGQGTQVNVSS,low polyreactivity
4,QVQLVESGGCLVQAGGSLRLSCAASGSTFTYNAMGGYRQAPGKERELVAGISWRGGRTYYADSVKGRFTISRDTAKNTVYLQMNSLKPEDTAVYYCNARLWGTHYEYARMYYWGQGTQVTVSS,low polyreactivity
5,QVQLVESGGCLVQAGGSLRLSCAASGSTFTYNAMGWYRQAPGKERELVAAISRTANANYADSVKGRFTISRDNAKNTVYLQMNSLKPEDTAVYYCADDFLDSKVHVRFGYWGKGTQVTVSS,low polyreactivity
6,QVQLVESGGCLVQAGGSLRLSCAASGSTFWWNTMGWYRQAPGKERELVADIRTSGGGTYYADSVKGRFTISRDNAKNTVYLQMNSLKPEDTAVYYCNADPKWEMGSWGQGTQVTVSS,low polyreactivity
7,QVQLVESGGCLVQAGGSLRLSCAASGSTINSYAMGCYRQAPGKERELVAAITWIGGNTYYADSVKGRFTISRDNSKNTVYLQMTSLKPEDTAVYYCGADEYFEYYYWGQGTQVTVSS,low polyreactivity
8,QVQLVESGGCLVQAGGSLRLSCAASGSTLWGYAMGWYRQAPGKERELVAAITSSGGITYYADSVKGRFTISRDNAKNTVYFQMNSLKPEDTAVYFCAVDYYVVGWTYLYYYWGQGTQVTVSS,low polyreactivity
9,QVQLVESGGCLVQAGGSLRLSCAASGYTFLYNAMGWYRQAPGKERELVATNTRGGSTNYADSVKGRFTISRDNAKNTVYLQMYSLKPEDTAVYYCNKEAAPLGFVPSYYGRDYWGHGTQVTVSS,low polyreactivity
10,QVQLVESGGCLVQAGGSLRLSCAASRITFRWYAMGWYRQAPGKDRELVAAISRSGASTYYADSVKGRFTISRDNAKNTVYLQMNSLKPEDTAVYYCAKEKTTYYWATYDYWGQGTQVTVSS,high polyreactivity
11,QVQLVESGGCLVQAGGSLRLSCAASVRIFQIYAMGWYRQAPGKERELVATISSGTRTYYADSVKGRFTMSRDNAKNTVYLQMNSLKPEDTAVYYCAKTYATRHAYWAGTRYEDDYWGQGTQVTVSS,high polyreactivity
12,QVQLVESGGCLVQAGGSLRLSCAPSGLTMHYYAMGWYRQAPATERELVAAITYSCGSTYYADSVKGRFTISLDNAKNTVYLQMNILKAEDTAVYYCAADTFPTTSEVDYWGQGTQVTVSS,low polyreactivity
13,QVQLVESGGCLVQAGGSLRLSCASSGFTFDIYAMGWYRQAPGKERELVATISFTGDTTSYADSGKGRFTISRDNAKNTVYLQMNSLKPEDTAVYYCAADGSYPLSVGRENLHYAEFDYWGKGTQVTVSS,low polyreactivity
14,QVQLVESGGCLVQAGGSLRLSCASSGSTFTHYAMGWYIQSPGKERELVAAISSGGSTYYADSVKGRFTISRDNAKNTVYLQMNSLKPEDTAVYYCAADYYLHDWWYPHDYWGQGTQVTVSS,low polyreactivity
15,QVQLVESGGCLVQAGGSLRLSCDASGIIFRGNAMGWYRHAPGTERELVAAISSAGSTNYSDSVKGRFTISRDNAKNTVYLQMNSLKPEDTAVYYCAKGSIKYHVTLRGRGYYWGQGTQVTVSS,low polyreactivity
16,QVQLVESGGCLVQAGGSLRLSCDASGSTFPYYAMGWYRQAPGKERELVAAITLSGSSTYYTDSVKGRFTISRDNAKNTVYLQMNSLKPEDTAVYYCATRRVQWGYRYSYWRQGTQVTVSS,high polyreactivity
17,QVQLVESGGCLVQAGGSLRLSCSASGLTFRYYAMGWYRQAPGKESELVAAITRRGSTYYADSVKGRFTISRDIAKNTVYLQMNSLKPEDSAVYYCATVTGFHSSPLRDLDYWGQGTLVTVSS,high polyreactivity
18,QVQLVESGGCLVQAGGSLRLSSAASGFTFRRYTMGWYRQAPGKVRELVAAISRSGGSTFYADSVKGRFTISRDNAKNTVYLQLNSLKPEDSAVYYCNAGRTYTALNGDYWGHGTQVTVSS,high polyreactivity
19,QVQLVESGGCLVQAGGSLRLSSAASGRTFDHYAMGWYRQAPGKERELDAAITSGGSTYYADSVKGRFTISRDNAKNTVYLQMNSLKPEDTAVYYCNKDSSFWGSYIAQVNERDYWGQGTQVTVSS,low polyreactivity
20,QVQLVESGGCLVQAGGSLRLTCAASGFTFVYNAMGWYRQDPGKERELVARISVSGGSTYYADSVKGRFTISRDNAKNTVYLQMNSLKPEDTSVYYCAAELSAPQPDYQLKVDYYYWGQGTQVTVSS,low polyreactivity
21,QVQLVESGGCLVQAGGSLSLSCAASGFIFDHNAMGWYRQAPGKERELVAAITWRGDSTYYADSVKGRFTISRDTAKNSVYVQMNSLKPEDTAVYYCNADAILVYYGKLDYWGQGTQVTVSS,low polyreactivity
22,QVQLVESGGCLVQAGGSRRLSWAASGRIFDTYTMGWYRQAPGKERELVAAITSGGSTYYADSVKGRFTISRDNAMNTVYLQMNSLKPEDTAVYYCAARYRSIIRYYYWGQGTQVTVSS,high polyreactivity

row,Sequence,polyreactivity (PSR sort gate)
1,QVQLVESGGCLVQARGSLRLSCASSGFIFQAYAIGWYRHRPGKERELVASISYSGSRTYYADSVKGRFTISRDNAKNTVYLQMNSLKPADTAVYYCAAGPRYWYPWFGRDYEYWGQGTQVTVSS,high polyreactivity
2,QVQLVESGGCLVQSGGSLRLSCAASGSTFRGYAMGWYRQAPGKEREFVAAISKGGASTYYADSVKGRFTISRDNAMNTVYLQMNSLKPEDTAVYYCAKGAYRRAYGTYYYWGQGTQVTVSS,high polyreactivity
3,QVQLVESGGDLVQAGGSLRLSCAASGRSYKYNDMGWYRQAPRKERELVADISSGVSTYYADSVKGRFTISRDNAKNTVYLQMNSLKPEDTAVYYFNAYSDGDEDYWGQGTQVTVSS,low polyreactivity
4,QVQLVESGGFLVQAAGSLRLSCDASGFTFSSYSMGWYRQAPGKERELVAAISTRGGSTYYADSVKGRFTISLDNAMNSVYLLLNSLKPEDTADYYCATGGRGGRRYDYWGQGTQVTVSS,low polyreactivity
5,QVQLVESGGGFVHAGGSLRLSCAASGITSRFYAIGWYRQAPAKERELVAAITSGGGSTRYSDSVKGRFTISRDNAKNTVYLQMNSLKPEDTAVYYCNARVLYYVNGYGGCKRYGYWGQGTQVNVSS,high polyreactivity
6,QVQLVESGGGFVKAGGSLRLSCASSGSIFYSYAMGWYRQAPGKEREFVAAISWSASRTYYADSVKGRFTISRDNAKNTVYLQMNSLKPEDTAVYDCAARTYYNSGYYYWGQGTQVTVSS,high polyreactivity
7,QVQLVESGGGFVQAGCSLRLSCDASGSIFAPNVMGCYRQAPGKERELDAAINFIGGRTYYADSVKGRFTISRDNAKNTVYLQMNSLKTEDTSVYYCNVGSYYRSYSGDFEYWGQGTQVTVSS,high polyreactivity
8,QVQLVESGGGFVQAGGRLRLSCAASGRTFKYYAMGWYRPAPGKDRELVAAISRGGSTNYADSVKGRFTISRDNAKNTVYLQLTSLNPEDTAVYYCAADQVTDYWWRGYEYWGQGTQVTVSS,low polyreactivity
9,QVQLVESGGGFVQAGGSLRLSCAASGCTFIKYAMGWYTQAPGKEREFVAAITRSGTSTYYADSVKGRFTISRDNAKNTVYLQMNRLKPEDTAVYFCSARYVYNSDRVSERDYWGQGTQVTVSS,high polyreactivity
10,QVQLVESGGGFVQAGGSLRLSCAASGCTVRWNAKGWYRQATGKDRELVAAITYSGGSTYYADSVKGRLTISRDIANNTVYLQMNSLNPEDTAVYYCATEGRGYFCYYTDDYWGQGTQVTVSS,high polyreactivity
11,QVQLVESGGGFVQAGGSLRLSCAASGFIFGYYAMGWYRQAPGKERELVAAITRSGSRTYYADSVKGRFTISRDNAKNTVYLQMNSLKPEDTAVYYFAKRRYWYYRSRDWFVSGVYWGQGTQVTVSS,low polyreactivity
12,QVQLVESGGGFVQAGGSLRLSCAASGFSFGYSAMGWYRQAPGKERELVAAINNADSTYYADSVKGRFPISRDNAKNTVYLQMNSLKPEDTAVYYCAAVVDYGWWLAYDYWGQGTQVTVSS,high polyreactivity
13,QVQLVESGGGFVQAGGSLRLSCAASGINVSHYTMGWYRQAPGKERELVAGISRSGGSTYYADSVKGRFTISRDNAKNTVYLQMNSLKPDDTAVYYCAADGYGFVSPRGYNYWGQGTQVTVSS,high polyreactivity
14,QVQLVESGGGFVQAGGSLRLSCAASGRIFGQYAMGWYRQAPGKERELVAAISQRGGSTYYADSVKGRFTISRDNAKNTVYLQMNSLKPEDTAVYYCAAPPRLIKSYGYNYWGQGTQVTVSS,high polyreactivity
15,QVQLVESGGGFVQAGGSLRLSCAASGRIFGVYALGWYRPAPGKERELVAAISYSGGSTYYADSVKGRFTISRVNAKNTVYLQMNSLKPEDTAVYYCAAKIFPKGDYWGQGTQVTVSS,high polyreactivity
16,QVQLVESGGGFVQAGGSLRLSCAASGRTFNGYAMGWYTQAPGKERELVAGISWRGTSTYYSDSVKGRFTISRDNAKNTVYLQLNSLKPEDTAVYYCAASRYLLYDYWGQGTQVTVSS,high polyreactivity
17,QVQLVESGGGFVQAGGSLRLSCAASGSIFRGYAMGWYRQAPGKERELVAAIRYSGARTYYADSVKGRFTISRDNAKNTVYLQMNSLKPEDTAVYYCNARYIRSYDYWGQGTQVTVSS,high polyreactivity
18,QVQLVESGGGFVQAGGSLRLSCAASGSTFFTNAKGWYRQAPGKERELVAASRWRGGTYYADSVKGRFTISRDNAKKTVYLQMNSLKPEDTPVYDCATSVKTSFDYWRQGTQVTVSS,low polyreactivity
19,QVQLVESGGGFVQAGGSLSLSCAASGRIFGINAMLWYRQAPGKVRELVAAISSSGANTYYADSVKGRFTISRDNAKNTVYLQMNRLKPEDTAVYYCATKASSYQSPYYYWGQGTQVTVSS,high polyreactivity
20,QVQLVESGGGFVQAGVSLRLSCAASGSIYYNAMGWYIQAPGKERELVAGITSSGGSTYYADSVKGRFTISRDNAKNTVYLQMISLKPEDTAVYFCAADFVYLCTLFGAYDYCGQGTQVTVSS,low polyreactivity
21,QVQLVESGGGIDQAGGSLRLICAASGRTFTQYAMRWSRQAHGKERELVAAITRSGGSTYYADSVKGRFTISRDNAKNTVYVLMNILKPEDTAVYYCAKRPAYRSTQTFDFWGQGTQVTVSS,high polyreactivity
